# Where two headings read alike, the source gives them in different places.
# How the values were obtained:
# [1] = target: Recombinant DPP-IV (Homo sapiens, UniProt P27487); test: DPP-IV resistance assay by mass spectrometry
# Description: The peptides were then desalted and concentrated on a C18 peptide micro trap (Michrom Bioresources, Inc., Auburn, Calif.) prior to introduction to a LTQ FT™ mass spectrometer (Thermo-Electron Corp., Waltham, Mass.) via an autosampler (Michrom Bioresources, Inc.). Peptides were eluted from a C5 packed 75 μm fused silica pico-frit column (New Objective, Inc., Woburn, Mass.) using a 5-60% acetonitrile/water gradient over 50 minutes at a flow rate of 500 nl/min. Extracted ion mass windows for the calculated m/z values of the most dominant charge states were used to search for both the parent compound and the theoretical hydrolyzed products within a given chromatogram. Exact mass was confirmed for each charge state by FT. The percentage of hydrolysis catalyzed by DPP-IV was estimated by dividing the area of product ions by the area of the total (parent+product) ions.
# The estimated cleavage product conversion is based on the ratio of the ion extract area (indicated on top of the peaks) for [product ion]^5+ over that for total ions ([Mother Ion]^5++[product ion]^5+). The m/z ratios used to search for the expected ions are listed on the right side of the plots.
# [2] = in vivo; cited from earlier work
# Sequence of Recombinant DPP-IV (P27487 whole entry, species assumed, the tested form may be a part): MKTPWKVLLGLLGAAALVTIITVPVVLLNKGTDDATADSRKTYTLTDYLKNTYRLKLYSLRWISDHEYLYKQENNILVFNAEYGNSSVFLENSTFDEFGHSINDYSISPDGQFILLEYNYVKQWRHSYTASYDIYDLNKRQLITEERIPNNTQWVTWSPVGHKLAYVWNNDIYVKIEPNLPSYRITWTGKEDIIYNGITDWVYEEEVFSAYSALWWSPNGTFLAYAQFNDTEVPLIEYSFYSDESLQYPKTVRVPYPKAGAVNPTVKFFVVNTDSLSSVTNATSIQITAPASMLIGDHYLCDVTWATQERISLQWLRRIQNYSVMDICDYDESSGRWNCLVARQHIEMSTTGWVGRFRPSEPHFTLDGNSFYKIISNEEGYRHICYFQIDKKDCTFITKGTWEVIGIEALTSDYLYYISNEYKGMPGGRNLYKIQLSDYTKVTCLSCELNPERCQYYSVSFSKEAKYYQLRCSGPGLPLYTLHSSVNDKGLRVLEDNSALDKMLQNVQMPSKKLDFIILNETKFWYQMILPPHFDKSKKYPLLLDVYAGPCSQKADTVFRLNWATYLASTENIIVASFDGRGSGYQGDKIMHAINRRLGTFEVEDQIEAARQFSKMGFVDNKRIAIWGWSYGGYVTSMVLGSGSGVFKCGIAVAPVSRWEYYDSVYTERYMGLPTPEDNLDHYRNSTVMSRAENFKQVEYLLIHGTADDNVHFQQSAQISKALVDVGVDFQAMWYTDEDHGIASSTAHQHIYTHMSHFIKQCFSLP
structure (smiles),measurement,setting,value
"CC[C@H](C)[C@H](NC(=O)[C@H](Cc1ccccc1)NC(=O)[C@H](CCC(=O)O)NC(=O)[C@H](CCCCN)NC(=O)[C@H](C)NC(=O)[C@H](C)NC(=O)[C@H](CCC(N)=O)NC(=O)CNC(=O)[C@H](CCC(=O)O)NC(=O)[C@H](CC(C)C)NC(=O)[C@H](Cc1ccc(O)cc1)NC(=O)[C@H](CO)NC(=O)[C@H](CO)NC(=O)[C@@H](NC(=O)[C@H](CC(=O)O)NC(=O)[C@H](CO)NC(=O)[C@@H](NC(=O)[C@H](Cc1ccccc1)NC(=O)[C@@H](NC(=O)CNC(=O)[C@H](CCC(=O)O)NC(=O)[C@H](C)NC(=O)[C@@H](N)Cc1c[nH]cn1)[C@@H](C)O)[C@@H](C)O)C(C)C)C(=O)N[C@@H](C)C(=O)N[C@@H](Cc1c[nH]c2ccccc12)C(=O)N[C@@H](CC(C)C)C(=O)N[C@H](C(=O)N[C@@H](CCCCN)C(=O)NCC(=O)N[C@@H](CCCNC(=N)N)C(=O)NCC(=O)NCC(=O)NCC(=O)NCCCC[C@H](N)C(=O)N1CCSC1)C(C)C [Compound 4844, GLP-1(7-37)-GG-(S)-2,6-diamino-1-(thiazolidin-3-yl)hexan-1-one amide]",DPP-IV resistance (in words),[1]; treated with 0.1 mU DPP-IV,expected product ions were not observed
"CC[C@H](C)[C@H](NC(=O)[C@H](Cc1ccccc1)NC(=O)[C@H](CCC(=O)O)NC(=O)[C@H](CCCCN)NC(=O)[C@H](C)NC(=O)[C@H](C)NC(=O)[C@H](CCC(N)=O)NC(=O)CNC(=O)[C@H](CCC(=O)O)NC(=O)[C@H](CC(C)C)NC(=O)[C@H](Cc1ccc(O)cc1)NC(=O)[C@H](CO)NC(=O)[C@H](CO)NC(=O)[C@@H](NC(=O)[C@H](CC(=O)O)NC(=O)[C@H](CO)NC(=O)[C@@H](NC(=O)[C@H](Cc1ccccc1)NC(=O)[C@@H](NC(=O)CNC(=O)[C@H](CCC(=O)O)NC(=O)[C@H](C)NC(=O)[C@@H](N)Cc1c[nH]cn1)[C@@H](C)O)[C@@H](C)O)C(C)C)C(=O)N[C@@H](C)C(=O)N[C@@H](Cc1c[nH]c2ccccc12)C(=O)N[C@@H](CC(C)C)C(=O)N[C@H](C(=O)N[C@@H](CCCCN)C(=O)NCC(=O)N[C@@H](CCCNC(=N)N)C(=O)NCC(=O)NCC(=O)NCC(=O)NCCCC[C@H](N)C(=O)N1CCSC1C#N)C(C)C (stereo partly drawn) [Compound 4845, GLP-1(7-37)-GG-(S)-2,6-diamino-1-(thiazolidin-2-cyano-3-yl)hexan-1-one amide]",DPP-IV resistance (in words),[1],expected product ions were not observed
"CC[C@H](C)[C@H](NC(=O)[C@H](Cc1ccccc1)NC(=O)[C@H](CCC(=O)O)NC(=O)[C@H](CCCCN)NC(=O)[C@H](C)NC(=O)[C@H](C)NC(=O)[C@H](CCC(N)=O)NC(=O)CNC(=O)[C@H](CCC(=O)O)NC(=O)[C@H](CC(C)C)NC(=O)[C@H](Cc1ccc(O)cc1)NC(=O)[C@H](CO)NC(=O)[C@H](CO)NC(=O)[C@@H](NC(=O)[C@H](CC(=O)O)NC(=O)[C@H](CO)NC(=O)[C@@H](NC(=O)[C@H](Cc1ccccc1)NC(=O)[C@@H](NC(=O)CNC(=O)[C@H](CCC(=O)O)NC(=O)[C@H](C)NC(=O)[C@@H](N)Cc1c[nH]cn1)[C@@H](C)O)[C@@H](C)O)C(C)C)C(=O)N[C@@H](C)C(=O)N[C@@H](Cc1c[nH]c2ccccc12)C(=O)N[C@@H](CC(C)C)C(=O)N[C@H](C(=O)N[C@@H](CCCCN)C(=O)NCC(=O)N[C@@H](CCCNC(=N)N)C(N)=O)C(C)C [GLP-1, reference compound]",metabolic clearance rate,[2],12 to 13 min
